Publication PMC8928218 (Frontiers in Cell and Developmental Biology, 2022)

Target: Pyrene-labeled G-actin (rabbit, UniProt P68135 1-377, pyrene label)
Experiment: cell-based or functional assay

B1: human hexameric SEPT2/6/7 complex (complex)
chain 1: MSKQQPTQFINPETPGYVGFANLPNQVHRKSVKKGFEFTLMVVGESGLGKSTLINSLFLTDLYPERVIPGAAEKIERTVQIEASTVEIEERGVKLRLTVVDTPGYGDAINCRDCFKTIISYIDEQFERYLHDESGLNRRHIIDNRVHCCFYFISPFGHGLKPLDVAFMKAIHNKVNIVPVIAKADTLTLKERERLKKRILDEIEEHNIKIYHLPDAESDEDEDFKEQTRLLKASIPFSVVGSNQLIEAKGKKVRGRLYPWGVVEVENPEHNDFLKLRTMLITHMQDLQEVTQDLHYENFRSERLKRGGRKVENEDMNKDQILLEKEAELRRMQEMIARMQAQMQMQMQGGDGDGGALGHHV
chain 2: MAATDIARQVGEGCRTVPLAGHVGFDSLPDQLVNKSVSQGFCFNILCVGETGLGKSTLMDTLFNTKFEGEPATHTQPGVQLQSNTYDLQESNVRLKLTIVSTVGFGDQINKEDSYKPIVEFIDAQFEAYLQEELKIRRVLHTYHDSRIHVCLYFIAPTGHSLKSLDLVTMKKLDSKVNIIPIIAKADAISKSELTKFKIKITSELVSNGVQIYQFPTDDESVAEINGTMNAHLPFAVIGSTEELKIGNKMMRARQYPWGTVQVENEAHCDFVKLREMLIRVNMEDLREQTHTRHYELYRRCKLEEMGFKDTDPDSKPFSLQETYEAKRNEFLGELQKKEEEMRQMFVQRVKEKEAELKEAEKELHEKFDRLKKLHQDEKKKLEDKKKSLDDEVNAFKQRKTAAELLQSQGSQAGGSQTLKRDKEKKNNPWLCTE
chain 3: MSVSARSAAAEERSVNSSTMVAQQKNLEGYVGFANLPNQVYRKSVKRGFEFTLMVVGESGLGKSTLINSLFLTDLYSPEYPGPSHRIKKTVQVEQSKVLIKEGGVQLLLTIVDTPGFGDAVDNSNCWQPVIDYIDSKFEDYLNAESRVNRRQMPDNRVQCCLYFIAPSGHGLKPLDIEFMKRLHEKVNIIPLIAKADTLTPEECQQFKKQIMKEIQEHKIKIYEFPETDDEEENKLVKKIKDRLPLAVVGSNTIIEVNGKRVRGRQYPWGVAEVENGEHCDFTILRNMLIRTHMQDLKDVTNNVHYENYRSRKLAAVTYNGVDNNKNKGQLTKSPLAQMEEERREHVAKMKKMEMEMEQVFEMKVKEKVQKLKDSEAELQRRHEQMKKNLEAQHKELEEKRRQFEDEKANWEAQQRILEQQNSSRTLEKNKKKGKIF
fold decrease in actin monomer turnover in the elongation phase (tau, the inverse value of the rate constant) in the pyrene actin polymerization assay, 2 µM actin, relative to actin alone: ~1.4 fold
